According to the Human Domainome abundance scans (Beltran et al. 2025):
± gives the uncertainty stated by the source.

B1: Far upstream element-binding protein 2, residues 142 to 214; numbered along this chain, Q92945 (parent)
chain: RTSMTEEYRVPDGMVGLIIGRGGEQINKIQQDSGCKVQISPDSGGLPERSVSLTGAPESVQKAKMMLDDIVSR

Variants of: B1
Experiment: abundance fitness (aPCA) (normalised: wild type 0, dead -1); higher = more abundant; growth selection in yeast, the domain comes from the species named
Settings: Homo sapiens

Variant	abundance fitness
RTSMTEEYRVPDGMVGLIIGRGGEQINKIQYDSGCKVQISPDSGGLPERSVSLTGAPESVQKAKMMLDDIVSR [Q31Y]	-0.166 ± 0.13
RTSMTEEYRVPDGMVGLIIGRGGEQINKIQQKSGCKVQISPDSGGLPERSVSLTGAPESVQKAKMMLDDIVSR [D32K]	-0.043 ± 0.084
RTSMTEEYRVPDGMVGLIIGRGGEQINKIQQPSGCKVQISPDSGGLPERSVSLTGAPESVQKAKMMLDDIVSR [D32P]	-1.1 ± 0.11
RTSMTEEYRVPDGMVGLIIGRGGEQINKIQQWSGCKVQISPDSGGLPERSVSLTGAPESVQKAKMMLDDIVSR [D32W]	-0.243 ± 0.057
RTSMTEEYRVPDGMVGLIIGRGGEQINKIQQSSGCKVQISPDSGGLPERSVSLTGAPESVQKAKMMLDDIVSR [D32S]	-0.047 ± 0.055
RTSMTEEYRVPDGMVGLIIGRGGEQINKIQQQSGCKVQISPDSGGLPERSVSLTGAPESVQKAKMMLDDIVSR [D32Q]	0.025 ± 0.06
RTSMTEEYRVPDGMVGLIIGRGGEQINKIQQISGCKVQISPDSGGLPERSVSLTGAPESVQKAKMMLDDIVSR [D32I]	-0.12 ± 0.15
RTSMTEEYRVPDGMVGLIIGRGGEQINKIQQESGCKVQISPDSGGLPERSVSLTGAPESVQKAKMMLDDIVSR [D32E]	-0.101 ± 0.061
RTSMTEEYRVPDGMVGLIIGRGGEQINKIQQGSGCKVQISPDSGGLPERSVSLTGAPESVQKAKMMLDDIVSR [D32G]	-0.156 ± 0.044
RTSMTEEYRVPDGMVGLIIGRGGEQINKIQQFSGCKVQISPDSGGLPERSVSLTGAPESVQKAKMMLDDIVSR [D32F]	-0.364 ± 0.14
RTSMTEEYRVPDGMVGLIIGRGGEQINKIQQYSGCKVQISPDSGGLPERSVSLTGAPESVQKAKMMLDDIVSR [D32Y]	-0.167 ± 0.11
RTSMTEEYRVPDGMVGLIIGRGGEQINKIQQLSGCKVQISPDSGGLPERSVSLTGAPESVQKAKMMLDDIVSR [D32L]	-0.005 ± 0.05
RTSMTEEYRVPDGMVGLIIGRGGEQINKIQQHSGCKVQISPDSGGLPERSVSLTGAPESVQKAKMMLDDIVSR [D32H]	-0.072 ± 0.088
RTSMTEEYRVPDGMVGLIIGRGGEQINKIQQMSGCKVQISPDSGGLPERSVSLTGAPESVQKAKMMLDDIVSR [D32M]	0.019 ± 0.066
RTSMTEEYRVPDGMVGLIIGRGGEQINKIQQASGCKVQISPDSGGLPERSVSLTGAPESVQKAKMMLDDIVSR [D32A]	-0.006 ± 0.05
RTSMTEEYRVPDGMVGLIIGRGGEQINKIQQRSGCKVQISPDSGGLPERSVSLTGAPESVQKAKMMLDDIVSR [D32R]	-0.085 ± 0.042
RTSMTEEYRVPDGMVGLIIGRGGEQINKIQQVSGCKVQISPDSGGLPERSVSLTGAPESVQKAKMMLDDIVSR [D32V]	-0.04 ± 0.052
RTSMTEEYRVPDGMVGLIIGRGGEQINKIQQTSGCKVQISPDSGGLPERSVSLTGAPESVQKAKMMLDDIVSR [D32T]	-0.074 ± 0.061
RTSMTEEYRVPDGMVGLIIGRGGEQINKIQQCSGCKVQISPDSGGLPERSVSLTGAPESVQKAKMMLDDIVSR [D32C]	-0.141 ± 0.082

Variant	abundance fitness
RTSMTEEYRVPDGMVGLIIGRGGEQINKIQQDSYCKVQISPDSGGLPERSVSLTGAPESVQKAKMMLDDIVSR [G34Y]	-0.998 ± 0.15
RTSMTEEYRVPDGMVGLIIGRGGEQINKIQQDSKCKVQISPDSGGLPERSVSLTGAPESVQKAKMMLDDIVSR [G34K]	-0.319 ± 0.068
RTSMTEEYRVPDGMVGLIIGRGGEQINKIQQDSWCKVQISPDSGGLPERSVSLTGAPESVQKAKMMLDDIVSR [G34W]	-1.02 ± 0.087
RTSMTEEYRVPDGMVGLIIGRGGEQINKIQQDSVCKVQISPDSGGLPERSVSLTGAPESVQKAKMMLDDIVSR [G34V]	-0.96 ± 0.061
RTSMTEEYRVPDGMVGLIIGRGGEQINKIQQDSDCKVQISPDSGGLPERSVSLTGAPESVQKAKMMLDDIVSR [G34D]	-0.274 ± 0.082
RTSMTEEYRVPDGMVGLIIGRGGEQINKIQQDSACKVQISPDSGGLPERSVSLTGAPESVQKAKMMLDDIVSR [G34A]	-0.365 ± 0.049
RTSMTEEYRVPDGMVGLIIGRGGEQINKIQQDSQCKVQISPDSGGLPERSVSLTGAPESVQKAKMMLDDIVSR [G34Q]	-0.247 ± 0.07
RTSMTEEYRVPDGMVGLIIGRGGEQINKIQQDSPCKVQISPDSGGLPERSVSLTGAPESVQKAKMMLDDIVSR [G34P]	-1.16 ± 0.13
RTSMTEEYRVPDGMVGLIIGRGGEQINKIQQDSSCKVQISPDSGGLPERSVSLTGAPESVQKAKMMLDDIVSR [G34S]	-0.357 ± 0.061
RTSMTEEYRVPDGMVGLIIGRGGEQINKIQQDSNCKVQISPDSGGLPERSVSLTGAPESVQKAKMMLDDIVSR [G34N]	-0.219 ± 0.1
RTSMTEEYRVPDGMVGLIIGRGGEQINKIQQDSLCKVQISPDSGGLPERSVSLTGAPESVQKAKMMLDDIVSR [G34L]	-0.396 ± 0.057
RTSMTEEYRVPDGMVGLIIGRGGEQINKIQQDSTCKVQISPDSGGLPERSVSLTGAPESVQKAKMMLDDIVSR [G34T]	-0.537 ± 0.07
RTSMTEEYRVPDGMVGLIIGRGGEQINKIQQDSMCKVQISPDSGGLPERSVSLTGAPESVQKAKMMLDDIVSR [G34M]	-0.391 ± 0.074
RTSMTEEYRVPDGMVGLIIGRGGEQINKIQQDSRCKVQISPDSGGLPERSVSLTGAPESVQKAKMMLDDIVSR [G34R]	-0.307 ± 0.043
RTSMTEEYRVPDGMVGLIIGRGGEQINKIQQDSICKVQISPDSGGLPERSVSLTGAPESVQKAKMMLDDIVSR [G34I]	-0.877 ± 0.2
RTSMTEEYRVPDGMVGLIIGRGGEQINKIQQDSECKVQISPDSGGLPERSVSLTGAPESVQKAKMMLDDIVSR [G34E]	-0.243 ± 0.056
RTSMTEEYRVPDGMVGLIIGRGGEQINKIQQDSHCKVQISPDSGGLPERSVSLTGAPESVQKAKMMLDDIVSR [G34H]	-0.384 ± 0.1
RTSMTEEYRVPDGMVGLIIGRGGEQINKIQQDSCCKVQISPDSGGLPERSVSLTGAPESVQKAKMMLDDIVSR [G34C]	-0.356 ± 0.077
RTSMTEEYRVPDGMVGLIIGRGGEQINKIQQDSFCKVQISPDSGGLPERSVSLTGAPESVQKAKMMLDDIVSR [G34F]	-0.887 ± 0.2
